Data taken from PMC2760644.

Target: F-actin (chicken) (UniProt P68139)
Test: co-sedimentation

**Q.** With “supervillin headpiece L38K point mutant (domain or fragment)” as the substance, how does the Kd read?
**A.** The Kd was 88 µM.
